Measurements: PMC6358683

Key:
[1] = target: C05 V110P (human); assay: BLI
[2] = target: HA of A/New Caledonia/20/1999 (influenza A virus A/New Caledonia/20/1999) (UniProt Q6WG00)
[3] = target: HA of A/Puerto Rico/8/1934 (influenza A virus A/Puerto Rico/8/1934) (UniProt P03452)

| Substance | Kd [1] | HAI, antibody concentration at the endpoint titer; virus A/New Caledonia/20/1999 [2] | HAI, antibody concentration at the endpoint titer; virus A/Puerto Rico/8/1934 [3] |
| --- | --- | --- | --- |
| HA of A/Puerto Rico/8/1934 (from UniProt P03452) (natural protein) | 2300 nM |  |  |
| C05 V110P (antibody) |  | 0.2 µg/mL |  |
| C05 V110P-A117E (antibody) |  | 0.2 µg/mL | > 100 µg/mL |
